Results taken from publication PMC5161705 (Nature, 2016).

B1: SecB (natural protein)
chain: MSEQNNTEMTFQIQRIYTKDISFEAPNAPHVFQKDWQPEVKLDLDTASSQLADDVYEVVLRVTVTASLGEETAFLCEVQQGGIFSIAGIEGTQMAHCLGAYCPNILFPYARECITSMVSRGTFPQLNLAPVNFDALFMNYLQQQAGEGTEEHQDA

Experiments:
SecB = target: B1; assay: NMR titration
[1] = target: T1, alkaline phosphatase (PhoA) (E. coli, UniProt P00634 1-471 = phosphatase); assay: ITC
NMR structure = target: the molecule itself; assay: NMR structure
[2] = target: maltose binding protein (MBP), MBP^1–396 (E. coli, UniProt P0AEX9 1-396 = MBP); assay: SEC-MALS
[3] = target: T1, alkaline phosphatase (PhoA); assay: SEC-MALS

Row | Binder | binding result (SecB) | also measured
1 | MBP^198–265 (domain or fragment) not shown | binds | –
2 | triple mutant SecB (SecB™), V40A/L42A/L44A (natural protein) MSEQNNTEMTFQIQRIYTKDISFEAPNAPHVFQKDWQPEAKADADTASSQLADDVYEVVLRVTVTASLGEETAFLCEVQQGGIFSIAGIEGTQMAHCLGAYCPNILFPYARECITSMVSRGTFPQLNLAPVNFDALFMNYLQQQAGEGTEEHQ | – | fold reduction in affinity against wild type SecB [1]: 40 fold
3 | MBP^97–164 (domain or fragment) not shown | binds | –
4 | MBP^67–99 (domain or fragment) not shown | binds | –
5 | MBP^160–201 (domain or fragment) not shown | binds | –
6 | MBP^260–336 (domain or fragment) not shown | binds | –
7 | MBP^29–99 (domain or fragment) not shown | binds | –
8 | MBP^331–396 (domain or fragment) not shown | binds | –
9 | B1 | – | binding result (NMR structure): binds; stoichiometry N [2]: 1 SecB:MBP; stoichiometry N [3]: 1 SecB:PhoA
